Measurements as given in paper PMC3176717 (Biochemistry, 2011).
Changes are numbered by the printed parent chain. In names and notes the source's numbering stands. Like-named read-outs stand apart in the source and are kept apart here.

B1: wild type human Prx I (peroxiredoxin I), reduced, non-glutathionylated (enzyme, UniProt Q06830 1-199, looked up)
chain: MSSGNAKIGHPAPNFKATAVMPDGQFKDISLSDYKGKYVVFFFYPLDFTFVCPTEIIAFSDRAEEFKKLNCQVIGASVDSHFCHLAWVNTPKKQGGLGPMNIPLVSDPKRTIAQDYGVLKADEGISFRGLFIIDDKGILRQITVNDLPVGRSVDETLRLVQAFQFTDKHGEVCPAGWKPGSDTIKPDVQKSKEYFSKQK
B2: glutathionylated Prx I (C83S) mutant (enzyme, human, UniProt Q06830 1-199, looked up)
chain: B1 chain with C83S
modifications: glutathionylated by disulfide exchange with GSSG; sites not stated for this mutant
B3: human Prx I (C52S/C173S) double mutant, reduced (enzyme, UniProt Q06830 1-199, looked up)
chain: B1 chain with C52S, C173S

How the values were obtained:
AUC [1] = target: the molecule itself; assay: AUC
AUC [2] = target: the molecule itself; assay: AUC; remark: listed apart in the source

Protein	stoichiometry N (AUC [1])	stoichiometry N (AUC [2])
B1	10	–
B2	–	2
B3	10	–
